The text below walks through data of IntAct's records for PubMed 32296183.

To fix the notation:
B1: Ceroid-lipofuscinosis neuronal protein 6 (Homo sapiens), Q9NWW5 (parent)
chain: MEATRRRQHLGATGGPGAQLGASFLQARHGSVSADEAARTAPFHLDLWFYFTLQNWVLDFGRPIAMLVFPLEWFPLNKPSVGDYFHMAYNVITPFLLLKLIERSPRTLPRSITYVSIIIFIMGASIHLVGDSVNHRLLFSGYQHHLSVRENPIIKNLKPETLIDSFELLYYYDEYLGHCMWYIPFFLILFMYFSGCFTASKAESLIPGPALLLVAPSGLYYWYLVTEGQIFILFIFTFFAMLALVLHQKRKRLFLDSNGLFLFSSFALTLLLVALWVAWLWNDPVLRKKYPGVIYVPEPWAFYTLHVSSRH
partner: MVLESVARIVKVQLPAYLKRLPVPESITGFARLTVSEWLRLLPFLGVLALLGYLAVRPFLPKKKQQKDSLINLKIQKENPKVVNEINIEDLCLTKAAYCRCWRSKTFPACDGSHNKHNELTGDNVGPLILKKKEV
B2: Catenin alpha-3 (Homo sapiens), Q9UI47-2 (parent)
chain: MSAETPITLNIDPQDLQVQTFTVEKLLEPLIIQVTTLVNCPQNPSSRKKGRSKRASVLLASVEEATWNLLDKGEKIAQEATVLKDELTASLEEVRKESEALKVSAERFTDDPCFLPKREAVVQAARALLAAVTRLLILADMIDVMCLLQHVSAFQRTFESLKNVANKSDLQKTYQKLGKELENLDYLAFKRQQDLKSPNQRDEIAGARASLKENSPLLHSICSACLEHSDVASLKASKDTVCEEIQNALNVISNASQGIQNMTTPPEPQAATLGSALDELENLIVLNPLTVTEEEIRPSLEKRLEAIISGAALLADSSCTRDLHRERIIAECNAIRQALQDLLSEYMNNAGKKERSNTLNIALDNMCKKTRDLRRQLRKAIIDHVSDSFLDTTVPLLVLIEAAKNGREKEIKEYAAIFHEHTSRLVEVANLACSMSTNEDGIKIVKIAANHLETLCPQIINAALALAARPKSQAVKNTMEMYKRTWENHIHVLTEAVDDITSIDDFLAVSGMFLFF
partner: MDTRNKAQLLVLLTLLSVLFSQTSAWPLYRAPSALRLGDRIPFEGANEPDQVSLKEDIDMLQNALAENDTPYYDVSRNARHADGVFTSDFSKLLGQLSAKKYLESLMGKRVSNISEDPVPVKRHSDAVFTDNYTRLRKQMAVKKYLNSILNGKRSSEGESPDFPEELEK
B3: Dolichol kinase (Homo sapiens), Q9UPQ8 (parent)
chain: MTRECPSPAPGPGAPLSGSVLAEAAVVFAVVLSIHATVWDRYSWCAVALAVQAFYVQYKWDRLLQQGSAVFQFRMSANSGLLPASMVMPLLGLVMKERCQTAGNPFFERFGIVVAATGMAVALFSSVLALGITRPVPTNTCVILGLAGGVIIYIMKHSLSVGEVIEVLEVLLIFVYLNMILLYLLPRCFTPGEALLVLGGISFVLNQLIKRSLTLVESQGDPVDFFLLVVVVGMVLMGIFFSTLFVFMDSGTWASSIFFHLMTCVLSLGVVLPWLHRLIRRNPLLWLLQFLFQTDTRIYLLAYWSLLATLACLVVLYQNAKRSSSESKKHQAPTIARKYFHLIVVATYIPGIIFDRPLLYVAATVCLAVFIFLEYVRYFRIKPLGHTLRSFLSLFLDERDSGPLILTHIYLLLGMSLPIWLIPRPCTQKGSLGGARALVPYAGVLAVGVGDTVASIFGSTMGEIRWPGTKKTFEGTMTSIFAQIISVALILIFDSGVDLNYSYAWILGSISTVSLLEAYTTQIDNLLLPLYLLILLMA
partner: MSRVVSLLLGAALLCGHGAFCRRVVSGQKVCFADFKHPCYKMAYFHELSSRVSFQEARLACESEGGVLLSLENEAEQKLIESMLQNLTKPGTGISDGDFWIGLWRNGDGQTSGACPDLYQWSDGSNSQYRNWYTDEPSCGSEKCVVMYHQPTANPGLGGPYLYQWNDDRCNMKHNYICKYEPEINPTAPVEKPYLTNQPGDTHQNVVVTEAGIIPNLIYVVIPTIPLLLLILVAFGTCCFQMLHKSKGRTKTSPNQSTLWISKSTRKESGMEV
B4: Ceroid-lipofuscinosis neuronal protein 6 (Homo sapiens), Q9NWW5 (parent)
chain: B1 chain
partner: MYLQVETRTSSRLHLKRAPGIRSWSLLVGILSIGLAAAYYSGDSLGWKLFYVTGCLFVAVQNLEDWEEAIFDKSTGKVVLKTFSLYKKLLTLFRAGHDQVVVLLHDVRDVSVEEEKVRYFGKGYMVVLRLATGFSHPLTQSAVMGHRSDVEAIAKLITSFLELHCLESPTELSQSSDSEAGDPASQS
B5: Catenin alpha-3 (Homo sapiens), Q9UI47-2 (parent)
chain: B2 chain
partner: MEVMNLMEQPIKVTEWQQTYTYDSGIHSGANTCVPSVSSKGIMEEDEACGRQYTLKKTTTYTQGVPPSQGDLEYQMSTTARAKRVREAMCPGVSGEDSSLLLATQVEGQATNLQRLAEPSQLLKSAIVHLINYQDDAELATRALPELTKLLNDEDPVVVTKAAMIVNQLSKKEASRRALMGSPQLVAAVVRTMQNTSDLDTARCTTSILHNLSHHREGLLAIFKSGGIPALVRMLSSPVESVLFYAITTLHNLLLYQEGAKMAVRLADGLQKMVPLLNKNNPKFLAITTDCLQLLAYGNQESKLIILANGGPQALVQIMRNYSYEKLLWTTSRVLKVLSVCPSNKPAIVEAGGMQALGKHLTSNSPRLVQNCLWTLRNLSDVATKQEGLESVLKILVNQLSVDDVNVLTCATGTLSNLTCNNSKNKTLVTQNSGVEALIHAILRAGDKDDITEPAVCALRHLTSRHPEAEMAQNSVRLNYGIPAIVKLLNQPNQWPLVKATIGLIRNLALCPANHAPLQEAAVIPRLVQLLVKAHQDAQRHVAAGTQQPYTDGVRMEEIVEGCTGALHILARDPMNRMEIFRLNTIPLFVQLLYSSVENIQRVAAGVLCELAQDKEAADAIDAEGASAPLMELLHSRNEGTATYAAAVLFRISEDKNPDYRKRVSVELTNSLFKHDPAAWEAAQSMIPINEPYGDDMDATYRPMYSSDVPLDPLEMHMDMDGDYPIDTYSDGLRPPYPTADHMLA
B6: Ceroid-lipofuscinosis neuronal protein 6 (Homo sapiens), Q9NWW5 (parent)
chain: B1 chain
partner: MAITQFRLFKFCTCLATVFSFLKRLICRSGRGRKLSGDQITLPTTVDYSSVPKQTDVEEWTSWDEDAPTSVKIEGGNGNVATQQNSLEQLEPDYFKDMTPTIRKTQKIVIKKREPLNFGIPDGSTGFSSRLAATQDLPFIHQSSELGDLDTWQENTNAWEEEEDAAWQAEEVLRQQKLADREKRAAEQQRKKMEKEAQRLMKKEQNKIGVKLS
B7: Golgi SNAP receptor complex member 2 (Homo sapiens), O14653 (parent)
chain: MDPLFQQTHKQVHEIQSCMGRLETADKQSVHIVENEIQASIDQIFSRLERLEILSSKEPPNKRQNARLRVDQLKYDVQHLQTALRNFQHRRHAREQQERQREELLSRTFTTNDSDTTIPMDESLQFNSSLQKVHNGMDDLILDGHNILDGLRTQRLTLKGTQKKILDIANMLGLSNTVMRLIEKRAFQDKYFMIGGMLLTCVVMFLVVQYLT
partner: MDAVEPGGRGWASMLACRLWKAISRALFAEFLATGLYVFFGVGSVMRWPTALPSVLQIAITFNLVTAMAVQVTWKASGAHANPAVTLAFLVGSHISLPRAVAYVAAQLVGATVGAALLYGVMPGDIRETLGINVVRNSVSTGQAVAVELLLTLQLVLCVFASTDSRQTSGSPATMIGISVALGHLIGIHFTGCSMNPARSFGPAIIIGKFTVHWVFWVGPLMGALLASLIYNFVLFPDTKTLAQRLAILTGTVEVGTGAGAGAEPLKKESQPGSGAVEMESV
B8: Catenin alpha-3 (Homo sapiens), Q9UI47-2 (parent)
chain: B2 chain
partner: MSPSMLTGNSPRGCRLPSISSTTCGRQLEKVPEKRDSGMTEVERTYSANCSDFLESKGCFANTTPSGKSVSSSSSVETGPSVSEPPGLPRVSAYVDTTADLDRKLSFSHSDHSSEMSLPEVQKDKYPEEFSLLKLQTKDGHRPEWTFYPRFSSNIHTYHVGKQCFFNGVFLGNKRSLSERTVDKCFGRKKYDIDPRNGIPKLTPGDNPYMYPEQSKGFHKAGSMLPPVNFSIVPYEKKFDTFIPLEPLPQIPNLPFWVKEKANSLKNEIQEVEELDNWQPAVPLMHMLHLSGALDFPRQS
B9: Golgi SNAP receptor complex member 2 (Homo sapiens), O14653 (parent)
chain: B7 chain
B10: Very-long-chain enoyl-CoA reductase (Homo sapiens), Q9NZ01 (parent)
chain: MKHYEVEILDAKTREKLCFLDKVEPHATIAEIKNLFTKTHPQWYPARQSLRLDPKGKSLKDEDVLQKLPVGTTATLYFRDLGAQISWVTVFLTEYAGPLFIYLLFYFRVPFIYGHKYDFTSSRHTVVHLACICHSFHYIKRLLETLFVHRFSHGTMPLRNIFKNCTYYWGFAAWMAYYINHPLYTPPTYGAQQVKLALAIFVICQLGNFSIHMALRDLRPAGSKTRKIPYPTKNPFTWLFLLVSCPNYTYEVGSWIGFAIMTQCLPVALFSLVGFTQMTIWAKGKHRSYLKEFRDYPPLRMPIIPFLL
partner: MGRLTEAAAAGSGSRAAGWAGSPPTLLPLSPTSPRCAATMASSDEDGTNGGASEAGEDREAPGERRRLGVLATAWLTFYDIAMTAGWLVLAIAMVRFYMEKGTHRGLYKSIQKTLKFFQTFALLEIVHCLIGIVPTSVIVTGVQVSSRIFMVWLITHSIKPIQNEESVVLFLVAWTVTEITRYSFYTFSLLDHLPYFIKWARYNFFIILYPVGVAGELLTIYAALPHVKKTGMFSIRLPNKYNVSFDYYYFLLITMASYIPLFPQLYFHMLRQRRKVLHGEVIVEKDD

Variants of B1 are the subject of the first assay. Conditions: with cisd2_human CISD2, Q8N5K1.
Consider R6T, for which the “effect of a mutation on the interaction” value is “with no effect”.

On to L47F, for which the “effect of a mutation on the interaction” value is reported as “with no effect”.

Consider G123D, for which the “effect of a mutation on the interaction” value is “with no effect”.

In a further assay the parent is B2. Conditions: with VIP.
For the variant V94D, the “effect of a mutation on the interaction” value is “disrupting interaction strength”.

In another assay the parent is B3. Conditions: with chodl_human CHODL.
For Y441S, the “effect of a mutation on the interaction” value is listed as “disrupting interaction strength”.

The variants in a further assay derive from B4. Conditions: with cybc1_human CYBC1, Q9BQA9.
For R6T, the “effect of a mutation on the interaction” value is “disrupting interaction strength”.

On to L47F, for which the “effect of a mutation on the interaction” value is on record as “disrupting interaction strength”.

Consider G123D, for which the “effect of a mutation on the interaction” value is “disrupting interaction strength”.

Variants of B5 are the subject of a further assay. Conditions: with plak_human JUP.
Take V94D: the “effect of a mutation on the interaction” value is recorded as “disrupting interaction strength”.

The variants in a further assay derive from B6. The note with it: with rcas1_human EBAG9, O00559.
On to L47F, for which the “effect of a mutation on the interaction” value is “with no effect”.

Take R6T: the “effect of a mutation on the interaction” value is listed as “with no effect”.

As for G123D, the “effect of a mutation on the interaction” value is “with no effect”.

The variants in another assay derive from B7. Conditions: with aqp6_human AQP6, Q13520.
As to G144W, the “effect of a mutation on the interaction” value is on record as “with no effect”.

In the next assay the parent is B8. The note with it: with spas1_human SPATS1, Q496A3.
As to V94D, the “effect of a mutation on the interaction” value is given as “disrupting interaction strength”.

A further assay covers variants of B9. Conditions: with stx4_human STX4, Q12846.
Sequence of stx4_human STX4, Q12846 (Q12846 whole entry): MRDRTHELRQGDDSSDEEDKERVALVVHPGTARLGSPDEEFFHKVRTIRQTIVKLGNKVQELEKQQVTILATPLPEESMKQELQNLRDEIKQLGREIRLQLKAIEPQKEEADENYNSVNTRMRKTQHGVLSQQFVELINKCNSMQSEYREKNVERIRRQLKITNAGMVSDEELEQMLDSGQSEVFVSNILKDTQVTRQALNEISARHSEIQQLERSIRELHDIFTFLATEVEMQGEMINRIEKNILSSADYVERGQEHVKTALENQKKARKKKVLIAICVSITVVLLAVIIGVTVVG
Consider G144W, for which the “effect of a mutation on the interaction” value was “with no effect”.

A further assay covers variants of B9. Conditions: with stx1a_human STX1A.
With G144W, the “effect of a mutation on the interaction” value was “with no effect”.

Variants of B9 are the subject of another assay. The note with it: with retr3_human RETREG3, Q86VR2.
Sequence of retr3_human RETREG3, Q86VR2 (Q86VR2 whole entry): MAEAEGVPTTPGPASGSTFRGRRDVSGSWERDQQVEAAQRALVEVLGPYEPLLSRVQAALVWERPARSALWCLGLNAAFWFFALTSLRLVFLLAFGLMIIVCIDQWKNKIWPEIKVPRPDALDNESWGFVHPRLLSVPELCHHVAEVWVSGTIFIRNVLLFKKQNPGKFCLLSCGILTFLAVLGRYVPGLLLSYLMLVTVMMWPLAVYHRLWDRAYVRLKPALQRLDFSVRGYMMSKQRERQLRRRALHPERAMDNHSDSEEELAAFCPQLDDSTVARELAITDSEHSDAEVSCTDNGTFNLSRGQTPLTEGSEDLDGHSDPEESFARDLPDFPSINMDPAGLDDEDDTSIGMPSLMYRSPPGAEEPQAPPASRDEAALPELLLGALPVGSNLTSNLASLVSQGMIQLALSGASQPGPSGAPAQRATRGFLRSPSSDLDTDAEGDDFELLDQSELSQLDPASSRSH
As for G144W, the “effect of a mutation on the interaction” value was “with no effect”.

In a further assay the parent is B9. The note with it: with tm205_human TMEM205, Q6UW68.
Sequence of tm205_human TMEM205, Q6UW68 (Q6UW68 whole entry): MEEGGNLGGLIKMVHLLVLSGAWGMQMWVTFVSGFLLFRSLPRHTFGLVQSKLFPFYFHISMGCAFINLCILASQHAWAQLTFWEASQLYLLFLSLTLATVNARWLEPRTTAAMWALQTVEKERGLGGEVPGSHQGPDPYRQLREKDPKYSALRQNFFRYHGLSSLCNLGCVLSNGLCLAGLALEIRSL
Consider G144W, for which the “effect of a mutation on the interaction” value was “with no effect”.

The variants in the next assay derive from B9. Conditions: with ebp_human EBP.
As for G144W, the “effect of a mutation on the interaction” value is “with no effect”.

The variants in the next assay derive from B9. The note with it: with gp152_human GPR152, Q8TDT2.
Sequence of gp152_human GPR152, Q8TDT2 (Q8TDT2 whole entry): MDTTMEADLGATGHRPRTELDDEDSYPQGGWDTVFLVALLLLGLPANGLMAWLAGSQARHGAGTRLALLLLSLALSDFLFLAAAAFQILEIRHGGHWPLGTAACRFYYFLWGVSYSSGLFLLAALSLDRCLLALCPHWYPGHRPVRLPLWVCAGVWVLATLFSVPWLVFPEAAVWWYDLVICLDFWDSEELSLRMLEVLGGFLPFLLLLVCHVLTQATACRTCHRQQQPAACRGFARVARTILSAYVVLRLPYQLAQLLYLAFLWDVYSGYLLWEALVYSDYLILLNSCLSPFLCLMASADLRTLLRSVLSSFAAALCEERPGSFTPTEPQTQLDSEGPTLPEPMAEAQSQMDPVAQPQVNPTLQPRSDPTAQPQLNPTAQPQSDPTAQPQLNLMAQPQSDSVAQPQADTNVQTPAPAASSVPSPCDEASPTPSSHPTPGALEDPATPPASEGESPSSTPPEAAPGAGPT
Take G144W: the “effect of a mutation on the interaction” value was “with no effect”.

The variants in the next assay derive from B9. Conditions: with ar13b_human ARL13B.
G144W: the “effect of a mutation on the interaction” value is “disrupting interaction strength”.

A further assay covers variants of B10. The note with it: with hacd1_human HACD1, B0YJ81.
For the variant P182L, the “effect of a mutation on the interaction” value is given as “disrupting interaction strength”.
